According to the supplement of paper PMC10724198:
± gives the standard deviation of the averaged measurements.

Test system: Saccharomyces cerevisiae
Assay: protein stability index of tFT-peptide fusion (C-terminal peptide) (PSI (0-1 scale)); higher = more stable (slower turnover)
Conditions: genetic background: wild type; temperature: 30 C
Method: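 Multiplexed protein stability (MPS) profiling in S. cerevisiae. Random 12-aa peptides (tFT-X12 library) are fused to the C-terminus of a sfGFP-mCherry tandem fluorescent timer, after mCherry and a GGGS linker. Cells are FACS-sorted into 8 mCherry/sfGFP bins and deep-sequenced. The protein stability index (PSI) is the read-weighted bin average, scaled from 0 (unstable) to 1 (stable). Only peptides with >10 reads are reported; cells were grown at 30 °C in SC-His with glucose.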
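Note: PSI is a weighted mean of sequencing reads over stability bins, variants kept only with over 10 reads, mCherry proximal and sfGFP distal, peptide attached via GGGS linker.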

| Sequence | protein stability index |
| --- | --- |
| PPPAPPLILVLP | 0.539 ± 0.0037 |
| PPPNPHAASTHH | 0.654 ± 0.0077 |
| KVAFKTNQHLGR | 0.661 ± 0.03 |
| VSFLVPRYLFSG | 0.654 ± 0.16 |
| TALGVCPRVMQN | 0.718 ± 0.039 |
| EGAGRRYRCGWG | 0.698 ± 0.049 |
| DANRSPEYSLNG | 0.7169 ± 0.0062 |
| VCSVVGGGYSWG | 0.686 ± 0.12 |
| VRLPLHHPIPNS | 0.7179 ± 0.0063 |
| GPRPATTSPLPT | 0.721 ± 0.2 |
| AGVVGRMGWGAT | 0.707 ± 0.041 |
| PPRPVPRPHPRP | 0.674 ± 0.011 |
| FERVLVFENRKY | 0.728 ± 0.051 |
| GGCAGGGGVVVR | 0.6851 ± 0.0046 |
| RAEGGDSGVAAL | 0.703 ± 0.011 |
| LLHWGRWRRGRR | 0.722 ± 0.046 |
| AFAFSVLTGWGV | 0.638 ± 0.072 |
| GVTDRGIDCGIK | 0.658 ± 0.023 |
| NSPTYEEKERHL | 0.82 ± 0.15 |
| LGLRSRIYMLVD | 0.664 ± 0.0083 |
| SPLGAHPTRIVF | 0.6915 ± 0.00071 |
| PPLPLPSPPTPH | 0.654 ± 0.021 |
| GLEPSGLSGGSW | 0.672 ± 0.041 |
| PGTNENPLSPGK | 0.7302 ± 0.0041 |
| SRVRTIVRNGSR | 0.777 ± 0.11 |

| Sequence | protein stability index |
| --- | --- |
| STWSLLKVGPAR | 0.6785 ± 0.0015 |
| LQATFRRHLNLV | 0.655 ± 0.032 |
| VAGQISGLIYFR | 0.699 ± 0.044 |
| TKDRIIMKKKKE | 0.7214 ± 0.0031 |
| FVFSIPPPPRPL | 0.59 ± 0.15 |
| NFCSSGLPLLII | 0.648 ± 0.022 |
| YQCPASSPVLSA | 0.7191 ± 0.005 |
| LPLAMTTIGISL | 0.675 ± 0.011 |
| SIFRVKQGKTNK | 0.5732 ± 0.0025 |
| GVGLGRVWVKLG | 0.708 ± 0.06 |
| DRVMTLRLTVNP | 0.691 ± 0.03 |
| PPLRPFLLPPPS | 0.722 ± 0.077 |
| LFCSSHRMQTKL | 0.746 ± 0.029 |
| PSRKFYSRHFPP | 0.671 ± 0.028 |
| RSRKKKERWKTE | 0.707 ± 0.015 |
| SSLPSSLSPLTS | 0.699 ± 0.024 |
| TCVLYSSGFIYF | 0.665 ± 0.065 |
| FRLGTMYDILPL | 0.69 ± 0.023 |
| IDLGWSRWGALA | 0.662 ± 0.086 |
| SYLTQNGYAFRQ | 0.644 ± 0.082 |
| AQSYPHPPPPPP | 0.644 ± 0.041 |
| SFVRTLSCISIF | 0.513 ± 0.053 |
| SSRVWPRRRSTA | 0.634 ± 0.052 |
| EEKEKKEKDGRR | 0.728 ± 0.042 |
| PPLPPPSPESVS | 0.709 ± 0.056 |

| Sequence | protein stability index |
| --- | --- |
| PPPPTSPTSPEL | 0.692 ± 0.051 |
| RPLLVPVSSTPP | 0.716 ± 0.045 |
| SRCSAGVASGVL | 0.636 ± 0.0069 |
| PPHNPTPSPTTP | 0.719 ± 0.11 |
| PPPVDLPTRLIP | 0.642 ± 0.0073 |
| PPTANLAHSSHP | 0.693 ± 0.014 |
| DKWVRDCLTESR | 0.691 ± 0.014 |
| FSLLPFFRHIFL | 0.637 ± 0.025 |
| ATTQLPPPGGMC | 0.695 ± 0.024 |
| KKKKFQDQKIDE | 0.629 ± 0.0068 |
| LLSPPPHPPPLI | 0.6648 ± 0.0038 |
| GGGCVGGGSSCA | 0.701 ± 0.12 |
| AGAGEHCDGVVG | 0.641 ± 0.0096 |
| ARHESRPTHSAQ | 0.6924 ± 0.0046 |
| VYSRESMTGPVK | 0.7 ± 0.059 |
| YRGRGSDQYAGT | 0.624 ± 0.058 |
| RIPSDLTLNPRG | 0.669 ± 0.05 |
| VMTRNERGQERK | 0.675 ± 0.038 |
| PLPLPSPAPPYS | 0.68 ± 0.013 |
| PLHPLPPAPFPP | 0.689 ± 0.01 |
| RSRRRFPPPPPI | 0.672 ± 0.062 |
| KVRGMKIKGKLD | 0.675 ± 0.054 |
| GSRSSDTGGRLM | 0.6819 ± 0.00074 |
| SPPPILPSSPSS | 0.698 ± 0.087 |
| VPGFCYKERAVV | 0.673 ± 0.034 |

| Sequence | protein stability index |
| --- | --- |
| GRGRGEVMNGRG | 0.574 ± 0.0044 |
| CVLFSGLSVDGC | 0.7215 ± 0.004 |
| AWVVFGLRFGFD | 0.534 ± 0.053 |
| GAAGGRGRGTAW | 0.619 ± 0.15 |
| AGGGRRRLDGGR | 0.703 ± 0.0086 |
| RPVSALESPQAG | 0.727 ± 0.059 |
| PPLPLLPPLPPP | 0.644 ± 0.034 |
| SSPLYSLLVLFQ | 0.54 ± 0.037 |
| LWLSAPDRREPF | 0.684 ± 0.041 |
| NKKQTKKKRKNK | 0.731 ± 0.037 |
| PTWGRSDESKAM | 0.744 ± 0.0099 |
| SKPEEAGADLSD | 0.6 ± 0.086 |
| RKQRAGRRKDKQ | 0.734 ± 0.043 |
| GRRVPGPLRSSE | 0.709 ± 0.085 |
| WGKGGWHRRWGC | 0.673 ± 0.0098 |
| SNLLKQHKDLFL | 0.7162 ± 0.0027 |
| PPPPHFLVPLSP | 0.695 ± 0.021 |
| SAGPVYAGGVAS | 0.6895 ± 0.0068 |
| PPPPPTAPPPSR | 0.733 ± 0.055 |
| PFATARLFPLPP | 0.804 ± 0.019 |
| SAKARTNHAFQF | 0.678 ± 0.0097 |
| AGCRFRWHTVDC | 0.648 ± 0.073 |
| QFFVVLVSHEGR | 0.63 ± 0.011 |
| SLPRYPRRASHS | 0.757 ± 0.068 |
| VVSSSMGCCFRG | 0.659 ± 0.076 |

| Sequence | protein stability index |
| --- | --- |
| PLPPPPAPPLSP | 0.67 ± 0.018 |
| KIKGVKEEIVKM | 0.686 ± 0.029 |
| VLRRALIIELLE | 0.66 ± 0.025 |
| YVIAMVYGAPWS | 0.60667 ± 0.00018 |
| RAARGQQGGPVA | 0.651 ± 0.041 |
| PPTLPPPSPLIL | 0.775 ± 0.11 |
| AEGYRGECSGCM | 0.622 ± 0.052 |
| NSCVFCLCHDLA | 0.6991 ± 0.006 |
| GYLFLGNMTRHN | 0.737 ± 0.016 |
| DFPPRPTPLSSL | 0.658 ± 0.033 |
| TPKWRRRLNQGL | 0.719 ± 0.032 |
| GGGLVLSGWCVW | 0.751 ± 0.026 |
| SQTIRTGGLCHL | 0.886 ± 0.041 |
| SQWGRVTMNLCG | 0.706 ± 0.012 |
| PPPFRPPPRLYS | 0.693 ± 0.025 |
| WSFMYLYFFDSW | 0.685 ± 0.086 |
| KTFGHQYVFIRK | 0.689 ± 0.013 |
| YNSTVVKKGRCP | 0.7024 ± 0.0028 |
| VVGAGTEWMVEV | 0.642 ± 0.025 |
| YCRGGGRAKREV | 0.693 ± 0.014 |
| PPPPPSPSPCLA | 0.767 ± 0.044 |
| PLIDRSTCSLSG | 0.6366 ± 0.0032 |
| RVRQQKIFPSLD | 0.7057 ± 0.0062 |
| PLGLPLPCPFLL | 0.683 ± 0.063 |
| SSWWGARVARRG | 0.756 ± 0.041 |

| Sequence | protein stability index |
| --- | --- |
| PPPSRSLPPTPP | 0.746 ± 0.084 |
| APIQPGEDKLKR | 0.64 ± 0.0099 |
| PVNQRPDGGNQD | 0.764 ± 0.016 |
| LGPSPQRLRYPT | 0.65 ± 0.035 |
| VDNTRKRSTNSV | 0.694 ± 0.021 |
| APFAPRRPLPPP | 0.612 ± 0.094 |
| RRSPYLPRILTP | 0.661 ± 0.023 |
| GLCSEETPALFY | 0.7173 ± 0.0043 |
| HSYMFIRNTIRI | 0.6281 ± 0.0031 |
| PPPPPATRPSSL | 0.674 ± 0.018 |
| GRVGFGSGAWLR | 0.669 ± 0.0021 |
| PVTRRDVDLPPP | 0.706 ± 0.039 |
| DGNDSILTKLPL | 0.714 ± 0.021 |
| GRYSECCSGGGG | 0.674 ± 0.015 |
| IGCTRSREESRE | 0.689 ± 0.013 |
| KNQTDRRKKIIN | 0.648 ± 0.039 |
| LRSRTPPSPHFP | 0.626 ± 0.0069 |
| LLPPPPFSAPPS | 0.671 ± 0.012 |
| RGGGGGGGAAGS | 0.657 ± 0.037 |
| SKRQQQKITAQE | 0.67 ± 0.086 |
| RSSKCRGQKGLG | 0.687 ± 0.014 |
